Reference: paper PMC9333443, “Structural insights into Pot1-ssDNA, Pot1-Tpz1 and Tpz1-Ccq1 Interactions within fission yeast shelterin complex” (PLoS Genetics, 2022)

B1: Tpz1, two-hybrid fusion, wild type (construct limits not stated) [S. pombe] / Ccq1, two-hybrid fusion, wild type (construct limits not stated) [S. pombe] (parent complex)
chain 1: MSNCLKHPWLENGLLNLIKNADVLPIRVFKCQPLQIFEYIRYEHPIRCKLSDTEFYIEAEFSSQSISDLNNFTEKRITSLRGGIVTLGNFLIHLIPSQSGIIPWIQVESFNFQGCEGAVFGNPKAITTSALFNALLQSPYLAALANEFNRSIKEGSSYQEASLSQQEKPNDNTSNSRDIKNNIQFHWKNMTSLSIEECIIPKGQQLILEKESEENTTHGIYLEERKMAQGLHNSVSETPEVKQEDNDEDLDAYSWSSSTDSAGEIPSLPTNRKILEKIAEKPPPFESPLEDDETPDQTNEHEANQVNVSQLPLNPRGSGISGRPVESTEQLNSSLTIERSQSIQSTDSKQRVETQSHRRSKIEIFDAQDELFDRSICTTIDDSTGKLLNAEETPIKTGDLHSTSASSVISCTPPAINFTSDICNEQIELEYKRKPIPDYDFMKGLETTLQELYVEHQSKKRRLELFQLTNNHQKNSEACEMCRLGLPHGSFFELLRDWKKIEEFRNKS
chain 2: MSEINDFTNSIIINESDTKYEVYSEVNSSNRWIAKEDCPSPLEDVWLLKLAGHKRKLEEPLSCMRNEEPASKQREIEKFLRTDLDHSENDFLTQEVDEFPSTQQLFPIPLQNDTAFDSSEESITKSSKSSFSVLDIGLPMSALQRKMMHRLVQYFAFCIDHFCTGPSDSRIQEKIRLFIQSAHNIAKHPSLYDTEVRNPSAAESTNSHVSLDASNFSSYAENSSKFLFLQELFKNLSPSYSKTFFLFISNQFLANTLTQWLKSQNIDAELWAEEDAKTSQHPAIWICVSKKAPSASHFLQSCPDLSATIFYDIEAYMSVTSSLPSIQSLVLRLIHLGSIEHAIKCFQSSYNASFLVNIVGVVATLSSSSEENSEASNLSTLFEKSGNFEEILGSESHSSITEKTRDIAKNVATWLKNGENFSSWPLPPLMDLASLSVAEPRDSQPSVSQVNDTFVKSSDSTFPSSQSMQSPSKLHSLTSNATDLLSSSSLKKNFFSQQEADEVELSNNYDLQGAAVQYLQRRLRMVEDELHEAINSKNVQQSRSEELEQQISKLTDNLQEYRNTVRELKLDLEKSKKKNEDLSKLEVEKVEEIANLKKELTHLAKQQEFGFKYVQEFSNEDLQGKLIEANEKNYKLTQLLKTQKEDADFITNQYQNASTFAAEQSKEVAKLQAECKRLQAINSKVMEEVKVYNDSRVEALLAKVSSLEETLKILEQKSLPKFTPHNQSPRIIDSN

Variants of: B1
Experiment: yeast two-hybrid (β-galactosidase); parent: 100; read off a plot

percent of parent [% WT]	Variant
~13	chain 2 L151R
~16	chain 2 L143R
~13	chain 2 P189R
~13	chain 2 I185R
~13	chain 2 F155R
~13	chain 2 M147R
~85	chain 2 L177R
~31	chain 2 E221R

Variants of: B1
Experiment: as above
Remark: another data set of the same source

percent of parent [% WT]	Variant
~15	chain 1 MSNCLKHPWLENGLLNLIKNADVLPIRVFKCQPLQIFEYIRYEHPIRCKLSDTEFYIEAEFSSQSISDLNNFTEKRITSLRGGIVTLGNFLIHLIPSQSGIIPWIQVESFNFQGCEGAVFGNPKAITTSALFNALLQSPYLAALANEFNRSIKEGSSYQEASLSQQEKPNDNTSNSRDIKNNIQFHWKNMTSLSIEECIIPKGQQLILEKESEENTTHGIYLEERKMAQGLHNSVSETPEVKQEDNDEDLDAYSWSSSTDSAGEIPSLPTNRKILEKIAEKPPPFESPLEDDETPDQTNEHEANQVNVSQLPLNPRGSGISGRPVESTEQLNSSLTIERSQSIQSTDSKQRVETQSHRRSKIEIFDAQDELFDRSICTTIDDSTGKLLNAEETPIKTGDLHSTSASSVISCTPPAINFTSDICNEQIELEYKRKPIPDYDFMKGLETTRQELYVEHQSKKRRLELFQLTNNHQKNSEACEMCRLGLPHGSFFELLRDWKKIEEFRNKS [chain 1 L449R]
~90	chain 1 MSNCLKHPWLENGLLNLIKNADVLPIRVFKCQPLQIFEYIRYEHPIRCKLSDTEFYIEAEFSSQSISDLNNFTEKRITSLRGGIVTLGNFLIHLIPSQSGIIPWIQVESFNFQGCEGAVFGNPKAITTSALFNALLQSPYLAALANEFNRSIKEGSSYQEASLSQQEKPNDNTSNSRDIKNNIQFHWKNMTSLSIEECIIPKGQQLILEKESEENTTHGIYLEERKMAQGLHNSVSETPEVKQEDNDEDLDAYSWSSSTDSAGEIPSLPTNRKILEKIAEKPPPFESPLEDDETPDQTNEHEANQVNVSQLPLNPRGSGISGRPVESTEQLNSSLTIERSQSIQSTDSKQRVETQSHRRSKIEIFDAQDELFDRSICTTIDDSTGKLLNAEETPIKTGDLHSTSASSVISCTPPAINFTSDICNEQIELEYKAKPIPDYDFMKGLETTLQELYVEHQSKKRRLELFQLTNNHQKNSEACEMCRLGLPHGSFFELLRDWKKIEEFRNKS [chain 1 R433A]
~100	chain 1 MSNCLKHPWLENGLLNLIKNADVLPIRVFKCQPLQIFEYIRYEHPIRCKLSDTEFYIEAEFSSQSISDLNNFTEKRITSLRGGIVTLGNFLIHLIPSQSGIIPWIQVESFNFQGCEGAVFGNPKAITTSALFNALLQSPYLAALANEFNRSIKEGSSYQEASLSQQEKPNDNTSNSRDIKNNIQFHWKNMTSLSIEECIIPKGQQLILEKESEENTTHGIYLEERKMAQGLHNSVSETPEVKQEDNDEDLDAYSWSSSTDSAGEIPSLPTNRKILEKIAEKPPPFESPLEDDETPDQTNEHEANQVNVSQLPLNPRGSGISGRPVESTEQLNSSLTIERSQSIQSTDSKQRVETQSHRRSKIEIFDAQDELFDRSICTTIDDSTGKLLNAEETPIKTGDLHSTSASSVISCTPPAINFTSDICNEQIELEYKRKPIPAYDFMKGLETTLQELYVEHQSKKRRLELFQLTNNHQKNSEACEMCRLGLPHGSFFELLRDWKKIEEFRNKS [chain 1 D438A]
~14	chain 1 MSNCLKHPWLENGLLNLIKNADVLPIRVFKCQPLQIFEYIRYEHPIRCKLSDTEFYIEAEFSSQSISDLNNFTEKRITSLRGGIVTLGNFLIHLIPSQSGIIPWIQVESFNFQGCEGAVFGNPKAITTSALFNALLQSPYLAALANEFNRSIKEGSSYQEASLSQQEKPNDNTSNSRDIKNNIQFHWKNMTSLSIEECIIPKGQQLILEKESEENTTHGIYLEERKMAQGLHNSVSETPEVKQEDNDEDLDAYSWSSSTDSAGEIPSLPTNRKILEKIAEKPPPFESPLEDDETPDQTNEHEANQVNVSQLPLNPRGSGISGRPVESTEQLNSSLTIERSQSIQSTDSKQRVETQSHRRSKIEIFDAQDELFDRSICTTIDDSTGKLLNAEETPIKTGDLHSTSASSVISCTPPAINFTSDICNEQIELEYKRKPIPDYDFMKGRETTLQELYVEHQSKKRRLELFQLTNNHQKNSEACEMCRLGLPHGSFFELLRDWKKIEEFRNKS [chain 1 L445R]
~14	chain 1 MSNCLKHPWLENGLLNLIKNADVLPIRVFKCQPLQIFEYIRYEHPIRCKLSDTEFYIEAEFSSQSISDLNNFTEKRITSLRGGIVTLGNFLIHLIPSQSGIIPWIQVESFNFQGCEGAVFGNPKAITTSALFNALLQSPYLAALANEFNRSIKEGSSYQEASLSQQEKPNDNTSNSRDIKNNIQFHWKNMTSLSIEECIIPKGQQLILEKESEENTTHGIYLEERKMAQGLHNSVSETPEVKQEDNDEDLDAYSWSSSTDSAGEIPSLPTNRKILEKIAEKPPPFESPLEDDETPDQTNEHEANQVNVSQLPLNPRGSGISGRPVESTEQLNSSLTIERSQSIQSTDSKQRVETQSHRRSKIEIFDAQDELFDRSICTTIDDSTGKLLNAEETPIKTGDLHSTSASSVISCTPPAINFTSDICNEQIELEYKRKPIPDYDAMKGLETTLQELYVEHQSKKRRLELFQLTNNHQKNSEACEMCRLGLPHGSFFELLRDWKKIEEFRNKS [chain 1 F441A]
~15	chain 1 MSNCLKHPWLENGLLNLIKNADVLPIRVFKCQPLQIFEYIRYEHPIRCKLSDTEFYIEAEFSSQSISDLNNFTEKRITSLRGGIVTLGNFLIHLIPSQSGIIPWIQVESFNFQGCEGAVFGNPKAITTSALFNALLQSPYLAALANEFNRSIKEGSSYQEASLSQQEKPNDNTSNSRDIKNNIQFHWKNMTSLSIEECIIPKGQQLILEKESEENTTHGIYLEERKMAQGLHNSVSETPEVKQEDNDEDLDAYSWSSSTDSAGEIPSLPTNRKILEKIAEKPPPFESPLEDDETPDQTNEHEANQVNVSQLPLNPRGSGISGRPVESTEQLNSSLTIERSQSIQSTDSKQRVETQSHRRSKIEIFDAQDELFDRSICTTIDDSTGKLLNAEETPIKTGDLHSTSASSVISCTPPAINFTSDICNEQIELEYKRKPIPDADFMKGLETTLQELYVEHQSKKRRLELFQLTNNHQKNSEACEMCRLGLPHGSFFELLRDWKKIEEFRNKS [chain 1 Y439A]
~72	chain 1 MSNCLKHPWLENGLLNLIKNADVLPIRVFKCQPLQIFEYIRYEHPIRCKLSDTEFYIEAEFSSQSISDLNNFTEKRITSLRGGIVTLGNFLIHLIPSQSGIIPWIQVESFNFQGCEGAVFGNPKAITTSALFNALLQSPYLAALANEFNRSIKEGSSYQEASLSQQEKPNDNTSNSRDIKNNIQFHWKNMTSLSIEECIIPKGQQLILEKESEENTTHGIYLEERKMAQGLHNSVSETPEVKQEDNDEDLDAYSWSSSTDSAGEIPSLPTNRKILEKIAEKPPPFESPLEDDETPDQTNEHEANQVNVSQLPLNPRGSGISGRPVESTEQLNSSLTIERSQSIQSTDSKQRVETQSHRRSKIEIFDAQDELFDRSICTTIDDSTGKLLNAEETPIKTGDLHSTSASSVISCTPPAINFTSDICNEQIELEYARKPIPDYDFMKGLETTLQELYVEHQSKKRRLELFQLTNNHQKNSEACEMCRLGLPHGSFFELLRDWKKIEEFRNKS [chain 1 K432A]
~100	chain 1 MSNCLKHPWLENGLLNLIKNADVLPIRVFKCQPLQIFEYIRYEHPIRCKLSDTEFYIEAEFSSQSISDLNNFTEKRITSLRGGIVTLGNFLIHLIPSQSGIIPWIQVESFNFQGCEGAVFGNPKAITTSALFNALLQSPYLAALANEFNRSIKEGSSYQEASLSQQEKPNDNTSNSRDIKNNIQFHWKNMTSLSIEECIIPKGQQLILEKESEENTTHGIYLEERKMAQGLHNSVSETPEVKQEDNDEDLDAYSWSSSTDSAGEIPSLPTNRKILEKIAEKPPPFESPLEDDETPDQTNEHEANQVNVSQLPLNPRGSGISGRPVESTEQLNSSLTIERSQSIQSTDSKQRVETQSHRRSKIEIFDAQDELFDRSICTTIDDSTGKLLNAEETPIKTGDLHSTSASSVISCTPPAINFTSDICNEQIELEYKRKPIPDYDFMKGLETTLQELYVEAQSKKRRLELFQLTNNHQKNSEACEMCRLGLPHGSFFELLRDWKKIEEFRNKS [chain 1 H456A]
~16	chain 1 MSNCLKHPWLENGLLNLIKNADVLPIRVFKCQPLQIFEYIRYEHPIRCKLSDTEFYIEAEFSSQSISDLNNFTEKRITSLRGGIVTLGNFLIHLIPSQSGIIPWIQVESFNFQGCEGAVFGNPKAITTSALFNALLQSPYLAALANEFNRSIKEGSSYQEASLSQQEKPNDNTSNSRDIKNNIQFHWKNMTSLSIEECIIPKGQQLILEKESEENTTHGIYLEERKMAQGLHNSVSETPEVKQEDNDEDLDAYSWSSSTDSAGEIPSLPTNRKILEKIAEKPPPFESPLEDDETPDQTNEHEANQVNVSQLPLNPRGSGISGRPVESTEQLNSSLTIERSQSIQSTDSKQRVETQSHRRSKIEIFDAQDELFDRSICTTIDDSTGKLLNAEETPIKTGDLHSTSASSVISCTPPAINFTSDICNEQIELEYKRKPIPDYDFMKGLETTLQELRVEHQSKKRRLELFQLTNNHQKNSEACEMCRLGLPHGSFFELLRDWKKIEEFRNKS [chain 1 Y453R]
~65	chain 1 MSNCLKHPWLENGLLNLIKNADVLPIRVFKCQPLQIFEYIRYEHPIRCKLSDTEFYIEAEFSSQSISDLNNFTEKRITSLRGGIVTLGNFLIHLIPSQSGIIPWIQVESFNFQGCEGAVFGNPKAITTSALFNALLQSPYLAALANEFNRSIKEGSSYQEASLSQQEKPNDNTSNSRDIKNNIQFHWKNMTSLSIEECIIPKGQQLILEKESEENTTHGIYLEERKMAQGLHNSVSETPEVKQEDNDEDLDAYSWSSSTDSAGEIPSLPTNRKILEKIAEKPPPFESPLEDDETPDQTNEHEANQVNVSQLPLNPRGSGISGRPVESTEQLNSSLTIERSQSIQSTDSKQRVETQSHRRSKIEIFDAQDELFDRSICTTIDDSTGKLLNAEETPIKTGDLHSTSASSVISCTPPAINFTSDICNEQIELEYKRKAIPDYDFMKGLETTLQELYVEHQSKKRRLELFQLTNNHQKNSEACEMCRLGLPHGSFFELLRDWKKIEEFRNKS [chain 1 P435A]
